In PMC5264208:
Each block holds one binder with its values, some of them ahead of it.

Assays:
[1] = target: T1, pentameric C-reactive protein (human), P02741; experiment: native gel or EMSA; BN-PAGE (4-16% Bis-Tris) of pCRP (40 ug/ml) pelleted with liposomes or microvesicles after 1 h at 37 °C in 25 mM Tris-HCl pH 7.4, 150 mM NaCl, 2 mM CaCl2; pCRP and mCRP controls beside it; conditions: remark: other sources report otherwise
T1 chain: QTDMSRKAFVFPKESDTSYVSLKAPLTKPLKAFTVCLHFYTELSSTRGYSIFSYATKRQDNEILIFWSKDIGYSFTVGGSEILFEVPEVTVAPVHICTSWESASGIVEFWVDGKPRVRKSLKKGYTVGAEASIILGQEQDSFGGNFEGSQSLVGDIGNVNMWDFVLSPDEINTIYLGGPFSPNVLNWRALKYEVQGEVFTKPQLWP

[2] = target: T2, tissue-deposited CRP (human (endogenous in burn wound, skeletal muscle and carotid plaque tissue)), P02741; experiment: native gel or EMSA; SDS-PAGE with 1/20 of the usual SDS content (8-13% gels), burn wound lysates loaded in native buffer; control pCRP and mCRP beside them; Western blot with anti-CRP-8; conditions: remark: other sources report otherwise
T2 chain: T1 chain

stoichiometry N [1]: 5
B1: pentameric C-reactive protein, P02741 19-224 (natural protein)
chain: T1 chain

stoichiometry N [2]: 5
B2: tissue-deposited CRP, P02741 19-224 (natural protein)
chain: T1 chain
